{"source": "patent US20260274955A1", "about": "(JANUX THERAPEUTICS, published 2026)", "data": [{"target": "T1, anti-CD28 Fab (SEQ ID NOs: 202, 203)", "T1 construct": "biotinylated and captured on neutravidin coated plates in the phage ELISA", "T1 sequence (VH, as listed by the source, chain 1 of 2)": "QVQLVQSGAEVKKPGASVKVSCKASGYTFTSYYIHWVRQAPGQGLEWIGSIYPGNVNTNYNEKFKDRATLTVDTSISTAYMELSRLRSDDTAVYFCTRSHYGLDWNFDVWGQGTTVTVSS", "T1 sequence (VL, as listed by the source, chain 2 of 2)": "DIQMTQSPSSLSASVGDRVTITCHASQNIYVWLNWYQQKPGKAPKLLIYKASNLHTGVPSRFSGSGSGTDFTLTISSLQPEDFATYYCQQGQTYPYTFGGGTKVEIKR", "assay": "phage binding ELISA on captured biotinylated Fab;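 note: clonal phage supernatants added to wells preincubated with CD28 antigen or blocking buffer only, bound phage detected by ELISA with horseradish-conjugated anti-M13 antibody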", "description": "After panning, phage infected bacteria were plated out and colonies picked into 96 well blocks. Clonal phage was then amplified and separated from bacterial cells via centrifugation.\nClonal phage were harvested as crude supernatants and screened via standard ELISAs. […] Prior to the addition of clonal phage, wells were incubated with blocking buffer and CD28 antigen or blocking buffer alone. Without washing or aspirating, clonal phage supernatants were then added to the wells and incubated for a short time. Wells were then washed followed by detection of bound phage using a horse radish conjugated anti-M13 antibody. Clonal phage of interest were then sent for sequence analysis.", "values": [{"binder": "TCAAGAHYLWPWCM", "note": "[Phage-955]", "Anti-CD28 Fab (SEQ ID NOs: 202, 203) signal": 2.05}, {"binder": "TCAAGATYAWPECL", "note": "[Phage-953]", "Anti-CD28 Fab (SEQ ID NOs: 202, 203) signal": 2.08}, {"binder": "MCSAGANYPWPWCL", "note": "[Phage-979]", "Anti-CD28 Fab (SEQ ID NOs: 202, 203) signal": 1.97}, {"binder": "TCAAGANYPWPYCL", "note": "[Phage-969]", "Anti-CD28 Fab (SEQ ID NOs: 202, 203) signal": 1.99}, {"binder": "MCAAGAHYTWPTCL", "note": "[Phage-977]", "Anti-CD28 Fab (SEQ ID NOs: 202, 203) signal": 1.97}, {"binder": "TCKAGATYLWPFCL", "note": "[Phage-926]", "Anti-CD28 Fab (SEQ ID NOs: 202, 203) signal": 2.23}, {"binder": "QCAAGASYPWPMCL", "note": "[Phage-951]", "Anti-CD28 Fab (SEQ ID NOs: 202, 203) signal": 2.08}, {"binder": "TCAAGATYPWPSCL", "note": "[Phage-924]", "Anti-CD28 Fab (SEQ ID NOs: 202, 203) signal": 2.25}, {"binder": "GCAAGATYPWPSCL", "note": "[Phage-957]", "Anti-CD28 Fab (SEQ ID NOs: 202, 203) signal": 2.05}, {"binder": "TCAAVFSYGWPECF", "note": "[Phage-949]", "Anti-CD28 Fab (SEQ ID NOs: 202, 203) signal": 2.09}, {"binder": "TCSAGATWTWPQCL", "note": "[Phage-944]", "Anti-CD28 Fab (SEQ ID NOs: 202, 203) signal": 2.14}, {"binder": "TCAAGASYAWPWCL", "note": "[Phage-960]", "Anti-CD28 Fab (SEQ ID NOs: 202, 203) signal": 2.03}, {"binder": "QCSAGAAWPWPFCL", "note": "[Phage-976]", "Anti-CD28 Fab (SEQ ID NOs: 202, 203) signal": 1.97}, {"binder": "WCKPGAPYKWPPCF", "note": "[Phage-942]", "Anti-CD28 Fab (SEQ ID NOs: 202, 203) signal": 2.14}, {"binder": "TCAAGATYEWPACL", "note": "[Phage-947]", "Anti-CD28 Fab (SEQ ID NOs: 202, 203) signal": 2.09}, {"binder": "TCAAGATYKWPACL", "note": "[Phage-958]", "Anti-CD28 Fab (SEQ ID NOs: 202, 203) signal": 2.05}, {"binder": "TCAAGAMYTWPLCF", "note": "[Phage-943]", "Anti-CD28 Fab (SEQ ID NOs: 202, 203) signal": 2.14}, {"binder": "TCAAGATYSWPMCF", "note": "[Phage-966]", "Anti-CD28 Fab (SEQ ID NOs: 202, 203) signal": 2}, {"binder": "TCAAGATYSWPWCF", "note": "[Phage-971]", "Anti-CD28 Fab (SEQ ID NOs: 202, 203) signal": 1.99}, {"binder": "TCSAGASWAWPWCF", "note": "[Phage-961]", "Anti-CD28 Fab (SEQ ID NOs: 202, 203) signal": 2.03}, {"binder": "LCEEFADYPWPMCL", "note": "[Phage-965]", "Anti-CD28 Fab (SEQ ID NOs: 202, 203) signal": 2.01}, {"binder": "SCAAVFSYSWPMCF", "note": "[Phage-973]", "Anti-CD28 Fab (SEQ ID NOs: 202, 203) signal": 1.99}, {"binder": "RCAAGASYPWPPCL", "note": "[Phage-925]", "Anti-CD28 Fab (SEQ ID NOs: 202, 203) signal": 2.25}, {"binder": "TCSAGFHYEWPRCL", "note": "[Phage-963]", "Anti-CD28 Fab (SEQ ID NOs: 202, 203) signal": 2.02}, {"binder": "SCAAGATYSWPMCL", "note": "[Phage-974]", "Anti-CD28 Fab (SEQ ID NOs: 202, 203) signal": 1.99}, {"binder": "TCSAGAYYTWPYCF", "note": "[Phage-948]", "Anti-CD28 Fab (SEQ ID NOs: 202, 203) signal": 2.09}, {"binder": "MCAEFFNYPWPLCL", "note": "[Phage-946]", "Anti-CD28 Fab (SEQ ID NOs: 202, 203) signal": 2.11}, {"binder": "LCAEFFNYPWPLCL", "note": "[Phage-975]", "Anti-CD28 Fab (SEQ ID NOs: 202, 203) signal": 1.98}, {"binder": "TCAAGAHYSWPACF", "note": "[Phage-923]", "Anti-CD28 Fab (SEQ ID NOs: 202, 203) signal": 2.25}, {"binder": "SCSAGAMYTWPTCL", "note": "[Phage-950]", "Anti-CD28 Fab (SEQ ID NOs: 202, 203) signal": 2.09}, {"binder": "TCSAGATYVWPQCF", "note": "[Phage-956]", "Anti-CD28 Fab (SEQ ID NOs: 202, 203) signal": 2.05}, {"binder": "TCAAGAHYTWPECF", "note": "[Phage-972]", "Anti-CD28 Fab (SEQ ID NOs: 202, 203) signal": 1.99}, {"binder": "TCSAGATYEWPWCM", "note": "[Phage-978]", "Anti-CD28 Fab (SEQ ID NOs: 202, 203) signal": 1.97}]}, {"target": "T2, Anti-CD28 Fab (SEQ ID NOs: 202, 203)", "T2 construct": "biotinylated and captured on neutravidin coated plates in the phage ELISA", "T2 sequence (VH, as listed by the source, chain 1 of 2)": "as the sequence (VH, as listed by the source, chain 1 of 2) above", "T2 sequence (VL, as listed by the source, chain 2 of 2)": "as the sequence (VL, as listed by the source, chain 2 of 2) above", "assay": "phage ELISA on captured biotinylated Fab;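 note: wells preblocked with or without CD28 antigen, then clonal phage supernatant added briefly, washed, and bound phage read out by ELISA using HRP-linked anti-M13 antibody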", "description": "(§1) Clonal phage were harvested as crude supernatants and screened via standard ELISAs. […] Prior to the addition of clonal phage, wells were incubated with blocking buffer and CD28 antigen or blocking buffer alone. Without washing or aspirating, clonal phage supernatants were then added to the wells and incubated for a short time. Wells were then washed followed by detection of bound phage using a horse radish conjugated anti-M13 antibody.", "values": [{"binder": "YCDGHLEEYKQKCL", "note": "[Phage-165]", "Anti-CD28 Fab signal": 2.18}, {"binder": "YCDGHLPQYKAKCL", "note": "[Phage-160]", "Anti-CD28 Fab signal": 2.19}, {"binder": "YCAGHLPEYFLKCL", "note": "[Phage-156]", "Anti-CD28 Fab signal": 2.19}, {"binder": "YCDGHSPLYIWKCL", "note": "[Phage-157]", "Anti-CD28 Fab signal": 2.19}, {"binder": "YCDGHSPDYIWKCL", "note": "[Phage-289]", "Anti-CD28 Fab signal": 1.93}, {"binder": "YCDGHAPEYIYKCL", "note": "[Phage-164]", "Anti-CD28 Fab signal": 2.18}, {"binder": "YCDGHLPEYIEKCL", "note": "[Phage-159]", "Anti-CD28 Fab signal": 2.19}, {"binder": "YCEGHAEEYMQKCL", "note": "[Phage-163]", "Anti-CD28 Fab signal": 2.18}, {"binder": "YCDGHAVEYMAKCL", "note": "[Phage-161]", "Anti-CD28 Fab signal": 2.18}, {"binder": "YCDGHMPEYIAKCL", "note": "[Phage-154]", "Anti-CD28 Fab signal": 2.19}, {"binder": "YCDGHSIEYRWKCL", "note": "[Phage-162]", "Anti-CD28 Fab signal": 2.18}, {"binder": "YCDGHLPEYLPKCL", "note": "[Phage-153]", "Anti-CD28 Fab signal": 2.19}, {"binder": "YCDGHLPEYLSKCL", "note": "[Phage-155]", "Anti-CD28 Fab signal": 2.19}, {"binder": "YCDGHAPEYMLKCL", "note": "[Phage-151]", "Anti-CD28 Fab signal": 2.2}, {"binder": "YCMGHAPEYMEKCL", "note": "[Phage-290]", "Anti-CD28 Fab signal": 1.93}, {"binder": "YCDGHAPQYMGKCL", "note": "[Phage-227]", "Anti-CD28 Fab signal": 2.06}, {"binder": "YCDGHMPEYMLKCL", "note": "[Phage-199]", "Anti-CD28 Fab signal": 2.11}, {"binder": "YCDGHMPEYMEKCL", "note": "[Phage-292]", "Anti-CD28 Fab signal": 1.93}, {"binder": "YCDGHAPDYMLKCL", "note": "[Phage-152]", "Anti-CD28 Fab signal": 2.2}, {"binder": "YCDGHAPQYMLKCL", "note": "[Phage-194]", "Anti-CD28 Fab signal": 2.12}, {"binder": "YCDGHKAEYMDKCL", "note": "[Phage-150]", "Anti-CD28 Fab signal": 2.2}]}, {"target": "T2, Anti-CD28 Fab (SEQ ID NOs: 202, 203)", "assay": "phage ELISA on captured Fab, wells pre-incubated with CD28 antigen (competitor: CD28);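 note: bound clonal phage detected with an HRP-linked anti-M13 antibody, compared against wells that received blocking buffer alone without CD28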", "description": "as §1", "values": [{"binder": "YCDGHLEEYKQKCL", "note": "[Phage-165]", "Anti-CD28 Fab signal in the presence of CD28": 0.08}, {"binder": "YCDGHLPQYKAKCL", "note": "[Phage-160]", "Anti-CD28 Fab signal in the presence of CD28": 0.09}, {"binder": "YCAGHLPEYFLKCL", "note": "[Phage-156]", "Anti-CD28 Fab signal in the presence of CD28": 0.08}, {"binder": "YCDGHSPLYIWKCL", "note": "[Phage-157]", "Anti-CD28 Fab signal in the presence of CD28": 0.09}, {"binder": "YCDGHSPDYIWKCL", "note": "[Phage-289]", "Anti-CD28 Fab signal in the presence of CD28": 0.1}, {"binder": "YCDGHAPEYIYKCL", "note": "[Phage-164]", "Anti-CD28 Fab signal in the presence of CD28": 0.06}, {"binder": "YCDGHLPEYIEKCL", "note": "[Phage-159]", "Anti-CD28 Fab signal in the presence of CD28": 0.07}, {"binder": "YCEGHAEEYMQKCL", "note": "[Phage-163]", "Anti-CD28 Fab signal in the presence of CD28": 0.06}, {"binder": "YCDGHAVEYMAKCL", "note": "[Phage-161]", "Anti-CD28 Fab signal in the presence of CD28": 0.1}, {"binder": "YCDGHMPEYIAKCL", "note": "[Phage-154]", "Anti-CD28 Fab signal in the presence of CD28": 0.08}, {"binder": "YCDGHSIEYRWKCL", "note": "[Phage-162]", "Anti-CD28 Fab signal in the presence of CD28": 0.06}, {"binder": "YCDGHLPEYLPKCL", "note": "[Phage-153]", "Anti-CD28 Fab signal in the presence of CD28": 0.09}, {"binder": "YCDGHLPEYLSKCL", "note": "[Phage-155]", "Anti-CD28 Fab signal in the presence of CD28": 0.07}, {"binder": "YCDGHAPEYMLKCL", "note": "[Phage-151]", "Anti-CD28 Fab signal in the presence of CD28": 0.07}, {"binder": "YCMGHAPEYMEKCL", "note": "[Phage-290]", "Anti-CD28 Fab signal in the presence of CD28": 0.07}, {"binder": "YCDGHAPQYMGKCL", "note": "[Phage-227]", "Anti-CD28 Fab signal in the presence of CD28": 0.08}, {"binder": "YCDGHMPEYMLKCL", "note": "[Phage-199]", "Anti-CD28 Fab signal in the presence of CD28": 0.09}, {"binder": "YCDGHMPEYMEKCL", "note": "[Phage-292]", "Anti-CD28 Fab signal in the presence of CD28": 0.09}, {"binder": "YCDGHAPDYMLKCL", "note": "[Phage-152]", "Anti-CD28 Fab signal in the presence of CD28": 0.09}, {"binder": "YCDGHAPQYMLKCL", "note": "[Phage-194]", "Anti-CD28 Fab signal in the presence of CD28": 0.09}, {"binder": "YCDGHKAEYMDKCL", "note": "[Phage-150]", "Anti-CD28 Fab signal in the presence of CD28": 0.07}]}]}
